± gives the uncertainty stated by the source.

The results in this text go back to the Human Domainome abundance scans (Beltran et al. 2025).

B1: Poly(rC)-binding protein 1, residues 278 to 350; numbered along this chain, Q15365 (parent)
chain: TQTTHELTIPNNLIGCIIGRQGANINEIRQMSGAQIKIANPVEGSSGRQVTITGSAASISLAQYLINARLSSE

Variants of B1 are the subject of this data set. Kind of data set: abundance fitness (aPCA) (normalised: wild type 0, dead -1); higher = more abundant; growth selection in yeast, the domain comes from the species named. As to conditions: Homo sapiens.
Consider T53F, for which the abundance fitness is -0.321 ± 0.12.
Consider T53H, for which the abundance fitness was -0.491 ± 0.15.
For the variant T53D, the abundance fitness was -0.51 ± 0.11.
Turning to T53N, the abundance fitness was -0.385 ± 0.16.
Regarding T53Y, the abundance fitness is -0.129 ± 0.13.
In the case of T53P, the abundance fitness is -0.777 ± 0.12.
Take T53Q: the abundance fitness was -0.075 ± 0.053.
Take T53A: the abundance fitness was -0.126 ± 0.036.
The result for T53S reads -0.041 ± 0.042.
For T53G, the abundance fitness is -0.308 ± 0.036.
For the variant T53V, the abundance fitness is -0.118 ± 0.039.
In the case of T53M, the abundance fitness is -0.063 ± 0.056.
Take T53W: the abundance fitness was -0.274 ± 0.049.
As to T53C, the abundance fitness is -0.137 ± 0.071.
As for T53I, the abundance fitness was -0.125 ± 0.12.
Consider T53R, for which the abundance fitness was -0.007 ± 0.031.
As for T53K, the abundance fitness is 0.075 ± 0.049.
For L65K, the abundance fitness was -0.422 ± 0.25.
To L65E belongs -0.191 ± 0.08; to L65D, -0.419 ± 0.23.
The result for L65G reads -0.416 ± 0.056.
For the variant L65A, the abundance fitness stood at 0.076 ± 0.056.
In the case of I59G, the abundance fitness is -0.66 ± 0.051.
Regarding I59M, the abundance fitness is -0.477 ± 0.12.
As for I59C, the abundance fitness is 0.098 ± 0.068.
Take I59K: the abundance fitness was -0.323 ± 0.092.
The result for I59E reads -0.626 ± 0.081; that for I59D, -0.567 ± 0.29; that for I59N, -0.423 ± 0.22.
The result for I59V reads 0.063 ± 0.047; that for I59P, -0.764 ± 0.098.
Take I59Q: the abundance fitness was -0.421 ± 0.08.
Consider I59T, for which the abundance fitness is -0.008 ± 0.044.
As for I59W, the abundance fitness is -0.752 ± 0.082.
For the variant I59Y, the abundance fitness was -0.93 ± 0.42.
To I59L belongs -0.355 ± 0.061; to I59A, -0.044 ± 0.035; to V50L, -0.069 ± 0.035.
V50S: the abundance fitness is -0.882 ± 0.16.
The result for V50W reads -0.989 ± 0.2.
To V50R belongs -0.818 ± 0.11.
To V50H belongs -0.596 ± 0.35; to V50N, -0.819 ± 0.25.
Consider V50Y, for which the abundance fitness was -0.57 ± 0.46.
Regarding V50G, the abundance fitness was -0.865 ± 0.089.
To V50E belongs -0.714 ± 0.12.
The result for V50F reads -0.602 ± 0.19; that for V50D, -0.796 ± 0.25.
Turning to V50C, the abundance fitness is -0.147 ± 0.093.
Regarding V50T, the abundance fitness is -0.901 ± 0.17.
The result for V50I reads 0.047 ± 0.088; that for V50M, -0.202 ± 0.056.
Consider V50K, for which the abundance fitness is -0.7 ± 0.14.
For V50A, the abundance fitness was -0.639 ± 0.089.
Consider S55G, for which the abundance fitness is -0.21 ± 0.034.
As for S55C, the abundance fitness was -0.252 ± 0.069.
As to S55E, the abundance fitness is -0.086 ± 0.034.
Turning to S55N, the abundance fitness was -0.017 ± 0.07.
Regarding S55A, the abundance fitness was -0.239 ± 0.042.
The result for S55M reads -0.536 ± 0.1.
For the variant S55D, the abundance fitness is -0.13 ± 0.068.
Take S55I: the abundance fitness is -0.882 ± 0.31.
As for S55V, the abundance fitness is -0.396 ± 0.056.
To S55F belongs -0.551 ± 0.33; to S55H, -0.047 ± 0.085.
For the variant S55K, the abundance fitness was -0.25 ± 0.046.
To S55T belongs 0.001 ± 0.047.
As for S55W, the abundance fitness was -0.575 ± 0.065.
The result for S55L reads -0.786 ± 0.1; that for S55Y, -0.119 ± 0.17; that for S55P, -0.102 ± 0.049.
S55Q: the abundance fitness is -0.336 ± 0.051.
Take S46T: the abundance fitness was -0.063 ± 0.046.
For the variant S46P, the abundance fitness is -0.029 ± 0.049.
With S46G, the abundance fitness was -0.032 ± 0.057.
With S46Q, the abundance fitness was -0.048 ± 0.048.
The result for S46A reads -0.015 ± 0.051.
For S46R, the abundance fitness was -0.106 ± 0.048.
For S46W, the abundance fitness was -0.125 ± 0.069.
Regarding S46H, the abundance fitness is -0.205 ± 0.084.
For S46I, the abundance fitness was -0.104 ± 0.08.
As for S46M, the abundance fitness was -0.139 ± 0.054.
In the case of S46V, the abundance fitness is -0.179 ± 0.067.
Turning to S46F, the abundance fitness worked out at 0.002 ± 0.075.
S46K: the abundance fitness is -0.002 ± 0.044.
With S46E, the abundance fitness is -0.088 ± 0.057.
As for S46C, the abundance fitness is -0.021 ± 0.081.
For the variant S46Y, the abundance fitness is -0.117 ± 0.057.
Take S46D: the abundance fitness was determined as 0.19 ± 0.076.
Consider S46L, for which the abundance fitness amounted to 0.064 ± 0.041.
The result for S46N reads 0.069 ± 0.052; that for A56K, 0.029 ± 0.055.
To A56N belongs -0.078 ± 0.078; to A56R, -0.039 ± 0.035.
Regarding A56Y, the abundance fitness is -0.245 ± 0.091.
Regarding A56I, the abundance fitness was -0.024 ± 0.11.
To A56V belongs -0.072 ± 0.047; to A56G, -0.077 ± 0.034; to A56L, 0.026 ± 0.051.
The result for A56E reads -0.044 ± 0.047.
With A56C, the abundance fitness is -0.102 ± 0.07.
To A56T belongs 0.026 ± 0.066.
Consider A56F, for which the abundance fitness stood at 0.032 ± 0.11.
Consider A56Q, for which the abundance fitness came to 0.076 ± 0.062.
With A56W, the abundance fitness was -0.269 ± 0.052.
Regarding A56M, the abundance fitness worked out at 0.081 ± 0.062.
As to A56D, the abundance fitness was -0.029 ± 0.06.
To A56H belongs -0.027 ± 0.089.
Take S60L: the abundance fitness is -0.354 ± 0.075.
As to S60Y, the abundance fitness is -0.298 ± 0.11.
S60E: the abundance fitness was 0.124 ± 0.042.
As for S60P, the abundance fitness was -0.635 ± 0.084.
S60Q: the abundance fitness amounted to 0.023 ± 0.058.
On to S60F, for which the abundance fitness is -0.102 ± 0.12.
S60A: the abundance fitness is -0.064 ± 0.037.
S60K: the abundance fitness is -0.047 ± 0.063.
As to S60C, the abundance fitness is -0.098 ± 0.062.
With S60G, the abundance fitness is -0.05 ± 0.034.
The result for S60V reads -0.352 ± 0.073; that for S60D, 0.191 ± 0.061.
As for S60I, the abundance fitness is -0.337 ± 0.22.
As for S60T, the abundance fitness came to 0.012 ± 0.046.
On to S60H, for which the abundance fitness was 0.051 ± 0.084.
To A62D belongs -0.711 ± 0.24; to A62W, -0.882 ± 0.31.
In the case of A62Q, the abundance fitness is -0.78 ± 0.29.
The result for A62E reads -0.902 ± 0.15.
Take A62P: the abundance fitness was -0.606 ± 0.1.
Turning to A62K, the abundance fitness was -0.888 ± 0.14.
As to A62F, the abundance fitness is -0.657 ± 0.26.
In the case of A62V, the abundance fitness was -0.448 ± 0.07.
Regarding A62T, the abundance fitness was -0.794 ± 0.12.
A62N: the abundance fitness was -0.828 ± 0.4.
As for A62M, the abundance fitness was -0.948 ± 0.16.
As for A62C, the abundance fitness was -0.768 ± 0.23.
Regarding A62G, the abundance fitness was -0.622 ± 0.071.
For A62R, the abundance fitness is -0.734 ± 0.083.
Q49I: the abundance fitness was -0.033 ± 0.063.
As for Q49L, the abundance fitness amounted to 0.03 ± 0.041.
Regarding Q49V, the abundance fitness worked out at 0.043 ± 0.034.
The result for Q49D reads -0.263 ± 0.069; that for Q49F, -0.533 ± 0.16.
On to Q49A, for which the abundance fitness was determined as 0.006 ± 0.043.
On to Q49P, for which the abundance fitness is -0.298 ± 0.064.
For the variant Q49R, the abundance fitness worked out at 0.049 ± 0.029.
Regarding Q49C, the abundance fitness stood at 0.006 ± 0.051.
To Q49N belongs -0.054 ± 0.058; to Q49Y, -0.543 ± 0.12.
The result for Q49M reads -0.081 ± 0.045; that for Q49E, -0.204 ± 0.064.
With Q49S, the abundance fitness is 0.008 ± 0.04.
Consider Q49W, for which the abundance fitness is -0.613 ± 0.071.
As to Q49K, the abundance fitness is -0.049 ± 0.063.
Turning to Q49H, the abundance fitness was -0.073 ± 0.069.
To L61C belongs 0.022 ± 0.063; to L61Q, 0.111 ± 0.044; to L61D, 0.02 ± 0.07.
To L61S belongs 0.084 ± 0.039.
The result for L61T reads 0.139 ± 0.044; that for L61M, 0.001 ± 0.065.
L61V: the abundance fitness is -0.052 ± 0.041.
In the case of L61N, the abundance fitness was -0.278 ± 0.13.
Take L61I: the abundance fitness was determined as 0.012 ± 0.089.
As for L61F, the abundance fitness is -0.074 ± 0.097.
To L61E belongs 0.091 ± 0.033; to L61K, 0.266 ± 0.039; to L61R, 0.253 ± 0.033.
